Residue numbers refer to the chain shown, from its start. Values belong to the binder of their own block, whether it stands above or below them.
Biological target: T1, Human CD137 ECD (human)
T1 construct: entry includes C-terminal His-tag and biotin acceptor peptide; also called human CD137 extracellular domain; 4-1BB
Assay: Biacore SPR, vs parent H183/L072

T1 sequence (chain, as listed by the source limits assumed): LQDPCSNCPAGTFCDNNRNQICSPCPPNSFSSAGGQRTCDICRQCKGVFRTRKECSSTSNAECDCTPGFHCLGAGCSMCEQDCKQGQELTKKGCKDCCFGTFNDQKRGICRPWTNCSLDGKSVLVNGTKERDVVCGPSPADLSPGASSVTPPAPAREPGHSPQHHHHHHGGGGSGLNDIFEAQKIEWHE

fold change of affinity: 1 fold
B1: H183/L072 VL S93F (antibody, name in Kabat numbering, V domains shown)
VH: QVQLVESGGGLVQPGRSLRLSCAASGFTFSNAWMHWVRQAPGKGLEWVAQIKDKGNAYAAYYAPSVKGRFTISRDDSKNSIYLQMNSLKTEDTAVYYCHYVHYASASTVLPAFGVDAWGQGTTVTVSS
VL: DIVMTQSPLSLPVTPGEPASISCQASQELVHMNRNTYLHWYQQKPGQAPRLLIYKVSNRFPGVPDRFSGSGSGTDFTLKISRVEAEDVGVYYCAQGTFVPFTFGQGTKLEIK
notes: Dual-Ig

fold change of affinity: 0 fold
B2: H183/L072 VL T92F (antibody, name in Kabat numbering, V domains shown)
VH: B1 VH
VL: B1 VL with T97F, F98S
notes: Dual-Ig

fold change of affinity: 0 fold
B4: H183/L072 VL T92D (antibody, name in Kabat numbering, V domains shown)
VH: B1 VH
VL: B1 VL with T97D, F98S
notes: Dual-Ig

fold change of affinity: 1.3 fold
B7: H183/L072 VL S93H (antibody, name in Kabat numbering, V domains shown)
VH: B1 VH
VL: B1 VL with F98H
notes: Dual-Ig

fold change of affinity: 0.5 fold
B8: H183/L072 VL T31Q (antibody, name in Kabat numbering, V domains shown)
VH: B1 VH
VL: B1 VL with T36Q, F98S
notes: Dual-Ig

fold change of affinity: 0.2 fold
B12: H183/L072 VL T92L (antibody, name in Kabat numbering, V domains shown)
VH: B1 VH
VL: B1 VL with T97L, F98S
notes: Dual-Ig

fold change of affinity: 0.4 fold
B13: H183/L072 VL T92G (antibody, name in Kabat numbering, V domains shown)
VH: B1 VH
VL: B1 VL with T97G, F98S
notes: Dual-Ig

fold change of affinity: 0.2 fold
B14: H183/L072 VL T31F (antibody, name in Kabat numbering, V domains shown)
VH: B1 VH
VL: B1 VL with T36F, F98S
notes: Dual-Ig

fold change of affinity: 0 fold
B16: H183/L072 VL S93P (antibody, name in Kabat numbering, V domains shown)
VH: B1 VH
VL: B1 VL with F98P
notes: Dual-Ig

fold change of affinity: 1 fold
B18: H183/L072 VL T31V (antibody, name in Kabat numbering, V domains shown)
VH: B1 VH
VL: B1 VL with T36V, F98S
notes: Dual-Ig

fold change of affinity: 0.4 fold
B20: H183/L072 VL T31E (antibody, name in Kabat numbering, V domains shown)
VH: B1 VH
VL: B1 VL with T36E, F98S
notes: Dual-Ig

fold change of affinity: 0.4 fold
B23: H183/L072 VL T92M (antibody, name in Kabat numbering, V domains shown)
VH: B1 VH
VL: B1 VL with T97M, F98S
notes: Dual-Ig

fold change of affinity: 1.1 fold
B25: H183/L072 VL S93Q (antibody, name in Kabat numbering, V domains shown)
VH: B1 VH
VL: B1 VL with F98Q
notes: Dual-Ig

fold change of affinity: 0 fold
B26: H183/L072 VL T92P (antibody, name in Kabat numbering, V domains shown)
VH: B1 VH
VL: B1 VL with T97P, F98S
notes: Dual-Ig

fold change of affinity: 0.4 fold
B27: H183/L072 VL T31S (antibody, name in Kabat numbering, V domains shown)
VH: B1 VH
VL: B1 VL with T36S, F98S
notes: Dual-Ig

fold change of affinity: 0.4 fold
B30: H183/L072 VL T31R (antibody, name in Kabat numbering, V domains shown)
VH: B1 VH
VL: B1 VL with T36R, F98S
notes: Dual-Ig

fold change of affinity: 1 fold
B31: H183/L072 VL S93N (antibody, name in Kabat numbering, V domains shown)
VH: B1 VH
VL: B1 VL with F98N
notes: Dual-Ig

fold change of affinity: 0.5 fold
B33: H183/L072 VL T92A (antibody, name in Kabat numbering, V domains shown)
VH: B1 VH
VL: B1 VL with T97A, F98S
notes: Dual-Ig

fold change of affinity: 0.1 fold
B35: H183/L072 VL T31D (antibody, name in Kabat numbering, V domains shown)
VH: B1 VH
VL: B1 VL with T36D, F98S
notes: Dual-Ig

fold change of affinity: 0.3 fold
B38: H183/L072 VL T31M (antibody, name in Kabat numbering, V domains shown)
VH: B1 VH
VL: B1 VL with T36M, F98S
notes: Dual-Ig

fold change of affinity: 0.1 fold
B40: H183/L072 VL T31W (antibody, name in Kabat numbering, V domains shown)
VH: B1 VH
VL: B1 VL with T36W, F98S
notes: Dual-Ig

fold change of affinity: 0.5 fold
B42: H183/L072 VL T31L (antibody, name in Kabat numbering, V domains shown)
VH: B1 VH
VL: B1 VL with T36L, F98S
notes: Dual-Ig

fold change of affinity: 1.1 fold
B43: H183/L072 VL S93I (antibody, name in Kabat numbering, V domains shown)
VH: B1 VH
VL: B1 VL with F98I
notes: Dual-Ig

fold change of affinity: 1.1 fold
B44: H183/L072 VL S93V (antibody, name in Kabat numbering, V domains shown)
VH: B1 VH
VL: B1 VL with F98V
notes: Dual-Ig

fold change of affinity: 0.1 fold
B45: H183/L072 VL T31Y (antibody, name in Kabat numbering, V domains shown)
VH: B1 VH
VL: B1 VL with T36Y, F98S
notes: Dual-Ig

fold change of affinity: 0 fold
B46: H183/L072 VL T92W (antibody, name in Kabat numbering, V domains shown)
VH: B1 VH
VL: B1 VL with T97W, F98S
notes: Dual-Ig

Second part, the binder before the results:

B3: H183/L072 VL T92I (antibody, name in Kabat numbering, V domains shown)
VH: B1 VH
VL: B1 VL with T97I, F98S
notes: Dual-Ig
fold change of affinity: 0.1 fold

B5: H183/L072 VL S93G (antibody, name in Kabat numbering, V domains shown)
VH: B1 VH
VL: B1 VL with F98G
notes: Dual-Ig
fold change of affinity: 0.4 fold

B6: H183/L072 VL T92E (antibody, name in Kabat numbering, V domains shown)
VH: B1 VH
VL: B1 VL with T97E, F98S
notes: Dual-Ig
fold change of affinity: 0 fold

B9: H183/L072 VL T92V (antibody, name in Kabat numbering, V domains shown)
VH: B1 VH
VL: B1 VL with T97V, F98S
notes: Dual-Ig
fold change of affinity: 0.3 fold

B10: H183/L072 VL T31K (antibody, name in Kabat numbering, V domains shown)
VH: B1 VH
VL: B1 VL with T36K, F98S
notes: Dual-Ig
fold change of affinity: 0.4 fold

B11: H183/L072 VL T31A (antibody, name in Kabat numbering, V domains shown)
VH: B1 VH
VL: B1 VL with T36A, F98S
notes: Dual-Ig
fold change of affinity: 0.4 fold

B15: H183/L072 VL T31P (antibody, name in Kabat numbering, V domains shown)
VH: B1 VH
VL: B1 VL with T36P, F98S
notes: Dual-Ig
fold change of affinity: 0.4 fold

B17: H183/L072 VL S93L (antibody, name in Kabat numbering, V domains shown)
VH: B1 VH
VL: B1 VL with F98L
notes: Dual-Ig
fold change of affinity: 1.3 fold

B19: H183/L072 VL T92K (antibody, name in Kabat numbering, V domains shown)
VH: B1 VH
VL: B1 VL with T97K, F98S
notes: Dual-Ig
fold change of affinity: 0 fold

B21: H183/L072 VL S93W (antibody, name in Kabat numbering, V domains shown)
VH: B1 VH
VL: B1 VL with F98W
notes: Dual-Ig
fold change of affinity: 1.2 fold

B22: H183/L072 VL T92H (antibody, name in Kabat numbering, V domains shown)
VH: B1 VH
VL: B1 VL with T97H, F98S
notes: Dual-Ig
fold change of affinity: 0 fold

B24: H183/L072 VL T31I (antibody, name in Kabat numbering, V domains shown)
VH: B1 VH
VL: B1 VL with T36I, F98S
notes: Dual-Ig
fold change of affinity: 0.9 fold

B28: H183/L072 VL T92R (antibody, name in Kabat numbering, V domains shown)
VH: B1 VH
VL: B1 VL with T97R, F98S
notes: Dual-Ig
fold change of affinity: 0 fold

B29: H183/L072 VL T92N (antibody, name in Kabat numbering, V domains shown)
VH: B1 VH
VL: B1 VL with T97N, F98S
notes: Dual-Ig
fold change of affinity: 0 fold

B32: H183/L072 VL S93K (antibody, name in Kabat numbering, V domains shown)
VH: B1 VH
VL: B1 VL with F98K
notes: Dual-Ig
fold change of affinity: 1.1 fold

B34: H183/L072 VL S93M (antibody, name in Kabat numbering, V domains shown)
VH: B1 VH
VL: B1 VL with F98M
notes: Dual-Ig
fold change of affinity: 1 fold

B36: H183/L072 VL T92S (antibody, name in Kabat numbering, V domains shown)
VH: B1 VH
VL: B1 VL with T97S, F98S
notes: Dual-Ig
fold change of affinity: 0 fold

B37: H183/L072 VL S93R (antibody, name in Kabat numbering, V domains shown)
VH: B1 VH
VL: B1 VL with F98R
notes: Dual-Ig
fold change of affinity: 1 fold

B39: H183/L072 VL T92Q (antibody, name in Kabat numbering, V domains shown)
VH: B1 VH
VL: B1 VL with T97Q, F98S
notes: Dual-Ig
fold change of affinity: 0 fold

B41: H183/L072 VL S93T (antibody, name in Kabat numbering, V domains shown)
VH: B1 VH
VL: B1 VL with F98T
notes: Dual-Ig
fold change of affinity: 1.1 fold
